Reference: US20160136234A1

Legend:
Assay in all cases: cell-based or functional assay
Tie2(Y897S) (h) (human) = Tie2(Y897S) (h) (human) (UniProt Q02763)
ROCK-I (h) (human) = ROCK-I (h) (human) (UniProt Q13464)
MSK2 (h) (human) = MSK2 (h) (human) (UniProt O75676)
MRCKβ (h) (human) = MRCKβ (h) (human) (UniProt Q9Y5S2)
MARK1 (h) (human) = MARK1 (h) (human) (UniProt Q9P0L2)
EphA8 (h) (human) = target: T1, EphA8 (h) (human) (UniProt P29322)
T1 sequence (looked up): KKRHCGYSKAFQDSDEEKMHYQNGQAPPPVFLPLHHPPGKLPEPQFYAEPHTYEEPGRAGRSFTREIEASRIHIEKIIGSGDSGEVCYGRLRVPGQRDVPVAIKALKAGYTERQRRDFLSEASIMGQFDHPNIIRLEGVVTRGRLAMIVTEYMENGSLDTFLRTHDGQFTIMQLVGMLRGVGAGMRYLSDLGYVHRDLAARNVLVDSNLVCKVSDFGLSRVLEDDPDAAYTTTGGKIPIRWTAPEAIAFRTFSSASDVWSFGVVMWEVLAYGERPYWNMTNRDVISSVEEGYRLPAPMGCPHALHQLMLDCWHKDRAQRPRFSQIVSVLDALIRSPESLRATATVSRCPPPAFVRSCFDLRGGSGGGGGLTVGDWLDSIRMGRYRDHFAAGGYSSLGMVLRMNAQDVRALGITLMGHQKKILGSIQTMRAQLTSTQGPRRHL

NLK (h) (human) = target: T2, NLK (h) (human) (UniProt Q9UBE8)
T2 sequence (looked up): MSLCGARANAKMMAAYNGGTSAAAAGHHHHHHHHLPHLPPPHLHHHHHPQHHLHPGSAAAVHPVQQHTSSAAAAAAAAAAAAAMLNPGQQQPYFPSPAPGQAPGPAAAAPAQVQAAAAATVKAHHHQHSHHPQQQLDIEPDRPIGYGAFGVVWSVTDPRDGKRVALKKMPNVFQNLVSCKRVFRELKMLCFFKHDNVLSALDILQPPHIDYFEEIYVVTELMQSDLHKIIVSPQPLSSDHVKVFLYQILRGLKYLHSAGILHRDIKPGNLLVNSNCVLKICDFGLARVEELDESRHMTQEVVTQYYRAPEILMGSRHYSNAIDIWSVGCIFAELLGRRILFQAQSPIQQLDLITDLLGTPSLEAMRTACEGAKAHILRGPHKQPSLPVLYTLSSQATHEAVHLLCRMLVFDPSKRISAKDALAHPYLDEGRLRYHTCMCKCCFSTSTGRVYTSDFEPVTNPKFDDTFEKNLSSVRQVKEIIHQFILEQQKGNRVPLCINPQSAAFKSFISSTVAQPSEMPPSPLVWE

CLK3 (h) (human) = CLK3 (h) (human) (UniProt P49761)
Lck (h) (human) = Lck (h) (human) (UniProt P06239)
cKit(D816V) (h) (human) = cKit(D816V) (h) (human) (UniProt P10721)
cKit(D816V) (h) (human), sequence (P10721 544-976 D816V): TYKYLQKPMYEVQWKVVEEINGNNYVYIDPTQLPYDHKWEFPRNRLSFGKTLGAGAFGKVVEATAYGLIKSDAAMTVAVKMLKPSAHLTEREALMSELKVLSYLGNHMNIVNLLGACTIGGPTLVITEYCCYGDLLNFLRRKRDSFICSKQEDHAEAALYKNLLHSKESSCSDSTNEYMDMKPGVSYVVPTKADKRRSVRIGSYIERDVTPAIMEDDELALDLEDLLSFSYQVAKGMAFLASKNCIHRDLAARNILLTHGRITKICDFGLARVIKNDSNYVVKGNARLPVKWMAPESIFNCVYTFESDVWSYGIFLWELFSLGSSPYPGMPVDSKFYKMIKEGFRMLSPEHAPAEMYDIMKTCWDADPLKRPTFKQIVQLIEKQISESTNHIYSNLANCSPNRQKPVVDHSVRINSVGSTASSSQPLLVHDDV

PKCτ (h) (human) = target: PKCτ (h) (human)
EphB3 (h) (human) = EphB3 (h) (human) (UniProt P54753)
EphB3 (h) (human), sequence (P54753 581-998 limits assumed): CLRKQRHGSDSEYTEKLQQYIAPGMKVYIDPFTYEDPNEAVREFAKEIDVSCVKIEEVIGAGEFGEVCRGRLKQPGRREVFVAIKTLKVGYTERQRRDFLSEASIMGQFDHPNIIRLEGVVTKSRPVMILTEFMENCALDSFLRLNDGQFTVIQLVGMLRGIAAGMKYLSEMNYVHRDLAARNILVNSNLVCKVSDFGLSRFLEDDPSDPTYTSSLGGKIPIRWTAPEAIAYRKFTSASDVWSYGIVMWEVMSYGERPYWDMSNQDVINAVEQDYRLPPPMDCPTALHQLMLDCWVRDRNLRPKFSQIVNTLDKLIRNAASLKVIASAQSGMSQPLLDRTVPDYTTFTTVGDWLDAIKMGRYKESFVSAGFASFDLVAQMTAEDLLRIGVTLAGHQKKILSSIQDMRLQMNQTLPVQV

cKit (h) (human) = cKit (h) (human) (UniProt P10721)
cKit (h) (human), sequence (P10721 544-976): as the sequence (P10721 544-976 D816V) above, with V273D counted along it

[1] = target: Hck (h) activated (human) (UniProt P08631)
GCK (h) (human) = target: T3, GCK (h) (human) (UniProt Q12851)
T3 sequence (looked up): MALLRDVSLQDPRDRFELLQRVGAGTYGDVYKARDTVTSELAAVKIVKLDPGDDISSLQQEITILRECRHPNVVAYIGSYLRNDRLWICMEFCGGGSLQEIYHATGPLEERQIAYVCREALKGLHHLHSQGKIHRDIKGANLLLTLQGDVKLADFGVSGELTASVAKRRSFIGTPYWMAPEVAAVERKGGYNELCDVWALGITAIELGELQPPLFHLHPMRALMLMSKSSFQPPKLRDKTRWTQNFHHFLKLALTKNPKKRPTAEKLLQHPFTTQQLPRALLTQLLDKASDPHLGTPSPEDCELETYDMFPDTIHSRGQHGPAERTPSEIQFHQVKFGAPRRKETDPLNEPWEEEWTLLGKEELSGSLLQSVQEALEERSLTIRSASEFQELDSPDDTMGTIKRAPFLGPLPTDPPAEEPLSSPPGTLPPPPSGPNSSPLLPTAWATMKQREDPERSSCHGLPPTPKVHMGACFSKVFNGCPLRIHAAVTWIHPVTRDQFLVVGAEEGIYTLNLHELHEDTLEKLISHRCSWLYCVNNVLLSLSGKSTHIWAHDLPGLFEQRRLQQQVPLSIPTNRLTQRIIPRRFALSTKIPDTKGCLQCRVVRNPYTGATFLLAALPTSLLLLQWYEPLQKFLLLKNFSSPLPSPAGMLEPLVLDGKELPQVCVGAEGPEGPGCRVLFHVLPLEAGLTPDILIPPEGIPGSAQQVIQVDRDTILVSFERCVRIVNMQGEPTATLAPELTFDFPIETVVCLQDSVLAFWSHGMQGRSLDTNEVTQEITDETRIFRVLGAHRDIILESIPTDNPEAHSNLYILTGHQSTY

PAK4 (h) (human) = PAK4 (h) (human) (UniProt O96013)
Fms (h) (human) = target: T4, Fms (h) (human) (UniProt P07333)
T4 sequence (looked up): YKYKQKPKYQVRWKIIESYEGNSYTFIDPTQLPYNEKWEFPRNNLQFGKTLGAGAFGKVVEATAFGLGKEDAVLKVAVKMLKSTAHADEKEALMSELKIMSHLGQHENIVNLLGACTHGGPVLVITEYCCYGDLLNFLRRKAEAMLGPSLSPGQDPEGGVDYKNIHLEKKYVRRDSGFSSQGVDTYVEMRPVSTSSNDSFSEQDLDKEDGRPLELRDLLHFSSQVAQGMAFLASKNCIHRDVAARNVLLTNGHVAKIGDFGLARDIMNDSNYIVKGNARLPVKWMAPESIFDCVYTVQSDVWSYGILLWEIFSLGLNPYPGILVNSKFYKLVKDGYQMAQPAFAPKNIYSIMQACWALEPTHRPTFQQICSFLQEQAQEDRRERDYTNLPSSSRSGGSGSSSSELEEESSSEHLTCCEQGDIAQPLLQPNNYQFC

BTK(R28H) (h) (human) = BTK(R28H) (h) (human) (UniProt Q06187)

MRCKβ (h) (human), sequence (Q9Y5S2 1-473 limits assumed): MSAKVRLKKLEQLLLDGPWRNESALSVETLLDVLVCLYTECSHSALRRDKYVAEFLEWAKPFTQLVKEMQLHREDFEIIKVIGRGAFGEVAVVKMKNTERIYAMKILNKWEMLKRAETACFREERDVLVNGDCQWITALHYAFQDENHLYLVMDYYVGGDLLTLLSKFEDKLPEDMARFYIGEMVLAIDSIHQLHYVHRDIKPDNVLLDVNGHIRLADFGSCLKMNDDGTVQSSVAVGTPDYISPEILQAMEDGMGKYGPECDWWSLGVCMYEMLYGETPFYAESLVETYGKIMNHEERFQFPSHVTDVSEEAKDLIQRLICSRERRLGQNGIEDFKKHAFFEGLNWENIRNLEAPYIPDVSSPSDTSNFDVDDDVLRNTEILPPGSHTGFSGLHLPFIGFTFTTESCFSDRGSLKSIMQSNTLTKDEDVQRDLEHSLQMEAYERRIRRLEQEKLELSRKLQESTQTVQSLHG
Tie2(Y897S) (h) (human), sequence (Q02763 771-1124 Y897S limits assumed): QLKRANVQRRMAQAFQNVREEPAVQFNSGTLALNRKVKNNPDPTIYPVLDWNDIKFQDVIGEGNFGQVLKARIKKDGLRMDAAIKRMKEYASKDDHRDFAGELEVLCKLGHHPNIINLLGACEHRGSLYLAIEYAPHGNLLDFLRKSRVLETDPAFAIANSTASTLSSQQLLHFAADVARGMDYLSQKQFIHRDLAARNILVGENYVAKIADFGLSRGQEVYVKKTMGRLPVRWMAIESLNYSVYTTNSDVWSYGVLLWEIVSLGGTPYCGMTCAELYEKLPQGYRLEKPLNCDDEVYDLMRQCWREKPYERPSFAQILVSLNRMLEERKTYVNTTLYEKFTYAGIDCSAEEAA

Substance: MMI-0300 (peptide)
- % activity at 100 µM (Tie2(Y897S) (h) (human)): 83%
- % activity at 100 µM (ROCK-I (h) (human)): 79%
- % activity at 100 µM (MSK2 (h) (human)): 56%
- % activity at 100 µM (MRCKβ (h) (human)): 83%
- % activity at 100 µM (MARK1 (h) (human)): 132%
- % activity at 100 µM (EphA8 (h) (human)): 93%
- % activity at 100 µM (NLK (h) (human)): 87%
- % activity at 100 µM (CLK3 (h) (human)): 61%
- % activity at 100 µM (Lck (h) (human)): -2%
- % activity at 100 µM (cKit(D816V) (h) (human)): 60%
- % activity at 100 µM (PKCτ (h) (human)): 68%
- % activity at 100 µM (EphB3 (h) (human)): 62%
- % activity at 100 µM (cKit (h) (human)): 53%
- % activity at 100 µM [1]: 82%
- % activity at 100 µM (GCK (h) (human)): 70%
- % activity at 100 µM (PAK4 (h) (human)): 94%
- % activity at 100 µM (Fms (h) (human)): 45%
- % activity at 100 µM (BTK(R28H) (h) (human)): 74%
